Measurements published in patent US20060246095A1, “Multiepitope polypeptides for cancer immunotherapy” (HADASIT MEDICAL RESEARCH SERVICES & DEVELOPMENT LTD., priority 2003, published 2006).

Key:
[1] = test system: T cell clone RB-154 (gp100 154-162 peptide); assay: Recognition assay for peptide presentation by DC (IFN-γ release ELISA), clone RB-154; format: cell-based, human; details: T = 0 hours, RB-154
Method: (§1) Dendritic cells were isolated from cytopheresis MNCs of melanoma patients with the HLA haplotypes HIA-A*0201 and HLA-DRβ1*0401. DC were generated from plastic adherent PBMCs cultured in RPMI with 10% human AB-serum, L-glutamine, penicillin-streptomycin, supplemented with GM-CSF 1000 IU/ml and IL-4 1000 IU/ml. By day 6, immature DC were harvested for electroporation.
(§2) 2.5-3×10^6 DC were re-suspended in 100 μl nucleofector solution and added to 5 μg of DNA plasmid in 2-mm electrode gap cuvettes. Transfected DC were immediately plated with CM containing GM/IL4 or let mature using TNFα 100 ng/ml and PGE2 1000 ng/ml. GFP-transfected DCs were collected 16-24 hours later for FACS analysis.
(§3) DC were pulsed with 1 μg/ml of the relevant peptides at 1×10^6 cells/ml. Stimulants were added after 1 hour incubation without washing the peptide.
T cell clones were co-incubated with DC in flat 96-well plate for 24 hours. DC were plated immediately after their transfection or pulsing in 6 separated plates, in the presence of GM CSF and IL-4. 1×10^5 T cells were added to 1×10^5 pulsed or transfected DC. In the longitudinal study, T cell clones were added to the transfected/pulsed DC at the following time points: T0=immediately, +12=after 12 hours, 24, 36, 48 and 72 hours. Supernatants were collected after overnight incubation. […]

[2] = test system: DC with CM (no T cell clone); assay: Recognition assay, CM in place of a T cell clone (IFN-γ background of DC); format: cell-based, human; details: CM instead of T cell clone
Method: as §1, §2, §3
T cell clones were co-incubated with DC in flat 96-well plate for 24 hours. DC were plated immediately after their transfection or pulsing in 6 separated plates, in the presence of GM CSF and IL-4. 1×10^5 T cells were added to 1×10^5 pulsed or transfected DC. In the longitudinal study, T cell clones were added to the transfected/pulsed DC at the following time points: T0=immediately, +12=after 12 hours, 24, 36, 48 and 72 hours. Supernatants were collected after overnight incubation. Interferon gamma release assay was performed to evaluate T cell stimulation using the ELISA method, results are presented in pg/ml.
For recognition assay of DC epitope presentation, 1×10^5 cells from different T cell clones, that were grown from PBMCs of patients, and were restricted to particular melanoma antigen peptides, were co-incubated with 1×10^5 pulsed or transfected DC, in the presence of GM-CSF and IL-4. T cell clones were added to the transfected/pulsed DC at the following time points: T=0 immediately, T=12, 24, 36, 48, 72 hours. Supernatant was collected after overnight incubation and was subjected to interferon gamma release assay, in order to evaluate the specific T cell activity towards the particular peptide presented by the DC cells.
The results shown in the following tables represent the amount of Interferon-γ (pg/ml) secreted to the culture medium as an index for T cell stimulation.

B1: MEP-mel: melanoma multiepitope polypeptide, SEQ ID NO: 2 or 57; in Tables 2-9 delivered by transfecting DC with pcDNA3-MEP-Mel plasmid (protein)
chain: PGTMGSCRKSYYLEPGPVTVRKSYLIMDQVPFSVRKSYLYMDGTMSQVRKSYLAGIGILTVRKSYYLEPGPVTVALLIMDQVPFSVALLYMDGTMSQVALLLAGIGILTVSSLYLEPGPVTVAAYIMDQVPFSVSSLYMDGTMSQVAAYLAGIGILTV
- Interferon-γ secreted to the culture medium ([1]; transfected DC from donor 1): 66 pg/mL
- Interferon-γ secreted to the culture medium ([1]; transfected DC from donor 2): 132 pg/mL
- Interferon-γ secreted to the culture medium ([2]; transfected DC, Donor 1, T = 24 hours): 94 pg/mL
- Interferon-γ secreted to the culture medium ([2]; transfected DC, Donor 1, T = 36 hours): 102 pg/mL
- Interferon-γ secreted to the culture medium ([2]; transfected DC, Lactacystin 0): 5 pg/mL
- Interferon-γ secreted to the culture medium ([2]; transfected DC, Lactacystin 25 μM): 0 pg/mL
- Interferon-γ secreted to the culture medium ([2]; transfected DC, Lactacystin 50 μM): 51 pg/mL
- Interferon-γ secreted to the culture medium ([2]; transfected or peptide-pulsed DC, Donor 1, T = 12 hours): 120 pg/mL
- Interferon-γ secreted to the culture medium ([2]; transfected or peptide-pulsed DC, Donor 1, T = 48 hours): 33 pg/mL
- Interferon-γ secreted to the culture medium ([2]; transfected or peptide-pulsed DC, Donor 1, T = 72 hours): 18 pg/mL
- Interferon-γ secreted to the culture medium ([2]; transfected or peptide-pulsed DC, Donor 2, T = 12 hours): 248 pg/mL
- Interferon-γ secreted to the culture medium ([2]; transfected or peptide-pulsed DC, Donor 2, T = 24 hours): 292 pg/mL
- Interferon-γ secreted to the culture medium ([2]; transfected or peptide-pulsed DC, Donor 2, T = 36 hours): 191 pg/mL
- Interferon-γ secreted to the culture medium ([2]; transfected or peptide-pulsed DC, Donor 2, T = 48 hours): 260 pg/mL
- Interferon-γ secreted to the culture medium ([2]; transfected or peptide-pulsed DC, Donor 2, T = 72 hours): 38 pg/mL
